Measurements: US20030068788A1
Blank lines part the entries; values can stand above or below the binder they belong to.

What was measured:
[1] = biological target: T1, ferredoxin encoded by fd233 from strain I-1529
T1 chain: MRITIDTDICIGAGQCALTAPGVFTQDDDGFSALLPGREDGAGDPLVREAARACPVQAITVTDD

[2] = biological target: T2, P450Ema1 monooxygenase from Streptomyces tubercidicus strain R-922 (Streptomyces tubercidicus strain R-922); assay: cell-based or functional assay
T2 sequence: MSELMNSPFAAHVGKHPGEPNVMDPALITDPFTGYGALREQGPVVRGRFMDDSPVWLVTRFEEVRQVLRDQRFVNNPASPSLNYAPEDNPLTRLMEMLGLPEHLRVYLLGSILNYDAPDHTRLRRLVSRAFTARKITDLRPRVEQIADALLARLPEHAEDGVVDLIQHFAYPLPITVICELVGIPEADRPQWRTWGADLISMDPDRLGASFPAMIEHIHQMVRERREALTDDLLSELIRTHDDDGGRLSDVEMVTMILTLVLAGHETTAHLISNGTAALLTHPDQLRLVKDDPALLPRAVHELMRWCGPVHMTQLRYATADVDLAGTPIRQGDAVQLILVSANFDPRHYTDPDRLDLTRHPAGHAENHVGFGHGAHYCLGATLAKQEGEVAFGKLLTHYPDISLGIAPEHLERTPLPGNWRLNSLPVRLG

[3] = biological target: T3, P450Ema1A, N-terminally truncated P450Ema1 encoded by ema1A (Streptomyces tubercidicus strain R-922); assay: cell-based or functional assay
T3 sequence: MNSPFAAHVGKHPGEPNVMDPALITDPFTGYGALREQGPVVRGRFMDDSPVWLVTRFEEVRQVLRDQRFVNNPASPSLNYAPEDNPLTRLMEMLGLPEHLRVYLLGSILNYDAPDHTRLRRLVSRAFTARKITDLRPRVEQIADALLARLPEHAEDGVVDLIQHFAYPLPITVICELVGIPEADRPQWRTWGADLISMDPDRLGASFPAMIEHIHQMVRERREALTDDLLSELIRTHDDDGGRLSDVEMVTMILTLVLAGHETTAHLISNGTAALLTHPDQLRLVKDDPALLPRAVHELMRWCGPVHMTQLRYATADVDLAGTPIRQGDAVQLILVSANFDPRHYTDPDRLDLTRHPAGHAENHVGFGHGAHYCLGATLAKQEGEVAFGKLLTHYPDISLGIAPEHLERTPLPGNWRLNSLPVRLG

[4] = biological target: T4, P450Ema2 monooxygenase from Streptomyces tubercidicus strain I-1529 (Streptomyces tubercidicus strain I-1529); assay: cell-based or functional assay
T4 sequence: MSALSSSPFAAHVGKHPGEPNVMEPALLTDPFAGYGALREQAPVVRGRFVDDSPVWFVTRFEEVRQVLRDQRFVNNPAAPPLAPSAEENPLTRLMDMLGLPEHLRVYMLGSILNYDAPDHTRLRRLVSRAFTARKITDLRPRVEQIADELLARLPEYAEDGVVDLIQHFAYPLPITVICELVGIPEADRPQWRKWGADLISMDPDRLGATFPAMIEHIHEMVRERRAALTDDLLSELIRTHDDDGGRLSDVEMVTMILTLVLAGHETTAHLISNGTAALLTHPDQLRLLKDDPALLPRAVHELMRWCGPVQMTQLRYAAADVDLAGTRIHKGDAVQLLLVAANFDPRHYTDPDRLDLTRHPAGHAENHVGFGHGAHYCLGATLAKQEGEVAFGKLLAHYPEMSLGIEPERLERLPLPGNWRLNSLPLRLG

[5] = biological target: T5, ferredoxin encoded by fd233 from strain I-1529 (Streptomyces tubercidicus strain I-1529); assay: cell-based or functional assay
T5 sequence: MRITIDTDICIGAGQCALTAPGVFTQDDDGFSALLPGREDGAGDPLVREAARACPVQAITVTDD

B1: ferredoxin reductase encoded by fre3 (protein)
chain: VVDAHQTFVIVGGGLAGAKAAETLRAEGFTGRVILICDERDHPYERPPLSKGFLLGKEERDSVFVHEPAWYAQAQIELHLGQPAVRLDPEGRTVRLGDGTLIAYDKLLLATGAEPRRLDIPGTGLAGVHHLRRLAHAERLRGVLASLGRDNGHLVIAGAGWIGLEVAAAARSYGAEVTVVEAAPTPLHGILGPELGGLFTDLHREHGVRFHFGARFTEIVGEGGMVLAVRTDDGEEHPAHDVLAAIGAAPRTALAEQAGLDLADPETGGGVAVDAALRTSDPYIYAAGDVAAADHPLLDTRLRVEHWANALNGGPAAARAMLGQDISYDRIPYFFSDQYDVGMEYSGYAPPGSYAQVVCRGDVAKREFIAFWLAADGRLLAGMNVNVWDVAESIQQLIRSGAPLEPGALADPQVPLAALLP
biocatalysis activity, S. lividans ZX7 with ema1/fd233/fre operons in pTUA, pTBBKA and pEAA [1]: In each case there was no impact in S. lividans by any of the fre genes on biocatalysis activity

B2: ferredoxin reductase encoded by fre14 (protein)
chain: MAQNTAFIIAGAGLAGAKAAETLRAEGFGGPVLLLGDERERPYERPPLSKGYLLGTSEREKAYVHPPQWYAEHDVDLRLGNAVTALDPAGHEVTLADGSRLGYAKLLLATGSTPRRLPVPGADLDGVHTLRYLADSDRLKDLFRSASRIVVIGGGWIGLETTAAARAAGVEVTVLESAPLPLLGVLGREVAQVFADLHTEHGVALRCDTQVTEITGTNGAVDGVRLADGTRIAADAVIVGVGITPNSETAAAAGLKVDNGVVVDERLCSSHPDIYAAGDVANAYHPLLGKHLRVEHWANALHQPKTAARAMLGGEAGYDRLPYFFTDQYDLGMEYTGHVEPGGYDRVVFRGDTGAREFIAFWLSGGRVLAGMNVNVWDVTDPIRALVASGRAVDPERLADADVPLADLVP
biocatalysis activity, S. lividans ZX7 with ema1/fd233/fre operons in pTUA, pTBBKA and pEAA [1]: In each case there was no impact in S. lividans by any of the fre genes on biocatalysis activity

% Conversion of Avermectin, 2 hour (S. lividans ZX7 + pEAA-ema1/fd233, whole cells) [2]: 8.26 % conversion
% Conversion of Avermectin, 2 hour (S. lividans ZX7 + pTBBKA-ema1/fd233, whole cells) [2]: 8.89 % conversion
% Conversion of Avermectin, 2 hour (S. lividans ZX7 + pTUA-ema1/fd233, whole cells) [2]: 23.3 % conversion
% Conversion of Avermectin, 16 hour (Pseudomonas putida + pRK-ema1/fd233, whole cells) [2]: 32 % conversion
% Conversion of Avermectin, 16 hour (S. lividans ZX7 + pEAA-ema1/fd233, whole cells) [2]: 10.7 % conversion
% Conversion of Avermectin, 16 hour (S. lividans ZX7 + pTBBKA-ema1/fd233, whole cells) [2]: 31 % conversion
% Conversion of Avermectin, 16 hour (S. lividans ZX7 + pTUA-ema1/fd233, whole cells) [2]: 61.2 % conversion
biocatalysis activity of pTUA-ema1/fd233 in S. lividans relative to pTUA-ema1 (fold) [2]: 1.5 to 3 fold
% Conversion of avermectin, 16 hrs (S. avermitilis MOS-0001 + pTBBKA-ema1A/fd233, whole cells) [3]: 28.5 % conversion
% Conversion of avermectin, 16 hrs (S. avermitilis MOS-0001 + pTUA-ema1A/fd233, whole cells) [3]: 24 % conversion
% Conversion of Avermectin, 2 hour (S. lividans ZX7 + pTUA-ema2/fd233, whole cells) [4]: 1.85 % conversion
% Conversion of Avermectin, 16 hour (S. lividans ZX7 + pTUA-ema2/fd233, whole cells) [4]: 6.4 % conversion
B3: ferredoxin encoded by fd233 from strain I-1529 (protein)
chain: MRITIDTDICIGAGQCALTAPGVFTQDDDGFSALLPGREDGAGDPLVREAARACPVQAITVTDD

conversion of avermectin to 4″-keto-avermectin, P. putida ATCC 17453 with the ema1/fd233/fre16 operon (whole cell assay; 23% without fre16) [5]: 44 % conversion
B4: ferredoxin reductase encoded by fre16 from strain I-1529 (enzyme)
chain: VVDAHQTFVIVGGGLAGAKAAETLRAEGFTGRVILICDERDHPYERPPLSKGFLLGKEERDSVFVHEPAWYAQAQIELHLGQPAVRLDPEAKTVRLGDGTLIAYDKLLLATGAEPRRLDIPGTGLAGVHHLRRLAHAERLRGVLASLGRDNGHLVIAGAGWIGLEVAAAARSYGAEVTVVEAAPTPLHGILGPELGGLFTELHRAHGVRFHFGARFTEIVGQDGMVLAVRTDDGEEHPAHDVLAAIGAAPRTALAEQAGLDLADPEAGGGVAVDATLRTSDPYIYAAGDVAAADHPLLDTRLRVEHWANALNGGPAAARAMLGQDISYDRVPYFFSDQYDVGMEYSGYAPPGSYAQVVCRGDVAKREFIAFWLGEDGRLLAGMNVNVWDVAETIQQLIRGGVRLEPGELADPEVPLTSLLP
biocatalysis activity, S. lividans ZX7 with ema1/fd233/fre operons in pTUA, pTBBKA and pEAA [1]: In each case there was no impact in S. lividans by any of the fre genes on biocatalysis activity

B5: ferredoxin reductase encoded by fre12 (protein)
chain: MPAARRRLRPPHRSGDLPARPPGRAHPPRDRPGRHDLRPSRRGGGHRRMKSVAVIGASLAGLYAARSLRSQGFDGRLVIVGDECHGPYDRPPLSKDFLTGATDPGRLALADAEEIAELDAEWLLGTRATGLDTGGRTVLLDGGRSLTTDGVVLATGAAPRLLPGPVPAGVHTLRTLDDAQALRADLAPAPVRVVVIGGGFIGAEVASSCAALGHDVTVVEAAPLPLVPQLGHAMAEICAALHADHGVTLLTGTGVARLRSEGDGRRVTGVELTDGRLLPADVVVVGIGVRPRTAWLTDSGLPLDDGVLCDAGCVTPLPAVVAVGDVARVDGARAEHWTSATEQAAVAARNLLAGSTVATHRSLPYFWSDQYGVRIQFAGHRLPTDTPRVLEGSPDDRSFLACYERDGRTTAVLALNRPRPFMRLRRELARTALSATT
biocatalysis activity, S. lividans ZX7 with ema1/fd233/fre operons in pTUA, pTBBKA and pEAA [1]: In each case there was no impact in S. lividans by any of the fre genes on biocatalysis activity
